Paper PMC5916898
Each block holds one substance with its values, some of them ahead of it.

What was measured:
[1] = biological target: GST-KLF4-ZF (UniProt O43474); assay: fluorescence intensity (de-quenching); details: Pull-down: 150 mM NaCl (or LiCl), 50 mM Tris pH 8, 0.25% NP-40, 1 mM TCEP, protease inhibitors, 4 C, 2 h; EMSA with lysate in same buffer, RT 15 min; FP in …
[2] = biological target: GST-KLF4-ZF (UniProt O43474); assay: fluorescence polarization; details: Pull-down: 150 mM NaCl (or LiCl), 50 mM Tris pH 8, 0.25% NP-40, 1 mM TCEP, protease inhibitors, 4 C, 2 h; EMSA with lysate in same buffer, RT 15 min; FP in …
[3] = biological target: SMARCA4 (human (HeLa)) (UniProt P51532); assay: pull-down TMT-MS titration; details: apparent, Pull-down: 150 mM NaCl (or LiCl), 50 mM Tris pH 8, 0.25% NP-40, 1 mM TCEP, protease inhibitors, 4 C, 2 h, EMSA with lysate in same buffer, RT 15 min, FP in …
[4] = test system: BAZ1B (human (HeLa)); assay: pull-down TMT-MS titration; details: apparent, Pull-down: 150 mM NaCl (or LiCl), 50 mM Tris pH 8, 0.25% NP-40, 1 mM TCEP, protease inhibitors, 4 C, 2 h, EMSA with lysate in same buffer, RT 15 min, FP in …
[5] = test system: BAZ1A (human (HeLa)); assay: pull-down TMT-MS titration; details: apparent, Pull-down: 150 mM NaCl (or LiCl), 50 mM Tris pH 8, 0.25% NP-40, 1 mM TCEP, protease inhibitors, 4 C, 2 h, EMSA with lysate in same buffer, RT 15 min, FP in …
[6] = test system: C17orf49 (human (HeLa)); assay: pull-down TMT-MS titration; details: apparent; histone H3K4me3; Pull-down: 150 mM NaCl (or LiCl), 50 mM Tris pH 8, 0.25% NP-40, 1 mM TCEP, protease inhibitors, 4 C, 2 h; EMSA with lysate in same buffer, RT 15 min; FP in …
[7] = test system: BPTF (human (HeLa)); assay: pull-down TMT-MS titration; details: apparent, Pull-down: 150 mM NaCl (or LiCl), 50 mM Tris pH 8, 0.25% NP-40, 1 mM TCEP, protease inhibitors, 4 C, 2 h, EMSA with lysate in same buffer, RT 15 min, FP in …
[8] = biological target: SMARCA5 (human (HeLa)) (UniProt O60264); assay: pull-down TMT-MS titration; details: apparent, Pull-down: 150 mM NaCl (or LiCl), 50 mM Tris pH 8, 0.25% NP-40, 1 mM TCEP, protease inhibitors, 4 C, 2 h, EMSA with lysate in same buffer, RT 15 min, FP in …
[9] = test system: SMARCA2 (human (HeLa)); assay: pull-down TMT-MS titration; details: apparent, Pull-down: 150 mM NaCl (or LiCl), 50 mM Tris pH 8, 0.25% NP-40, 1 mM TCEP, protease inhibitors, 4 C, 2 h, EMSA with lysate in same buffer, RT 15 min, FP in …
[10] = test system: PHF10 (human (HeLa)); assay: pull-down TMT-MS titration; details: apparent; histone H3K9ac K14ac; Pull-down: 150 mM NaCl (or LiCl), 50 mM Tris pH 8, 0.25% NP-40, 1 mM TCEP, protease inhibitors, 4 C, 2 h; EMSA with lysate in same buffer, RT 15 min; FP in …
[11] = biological target: H3K9AcK14Ac modified di-nucleosome (human) (UniProt P68431); assay: affinity purification with mass spectrometry; titration series of ten concentrations of biotinylated recombinant di-nucleosome on streptavidin beads; 100 ug HeLa nuclear lysate per pulldown in PBB (150 mM NaCl, 50 mM Tris pH 8, 0.25% NP-40, 1 mM TCEP), 2 h at 4 °C; 10-plex TMT, SPS-MS3; apparent Kd from a Hill-like fit, triplicate, r^2 > 0.9

Sequence of SMARCA4 (human (HeLa)) (P51532 whole entry): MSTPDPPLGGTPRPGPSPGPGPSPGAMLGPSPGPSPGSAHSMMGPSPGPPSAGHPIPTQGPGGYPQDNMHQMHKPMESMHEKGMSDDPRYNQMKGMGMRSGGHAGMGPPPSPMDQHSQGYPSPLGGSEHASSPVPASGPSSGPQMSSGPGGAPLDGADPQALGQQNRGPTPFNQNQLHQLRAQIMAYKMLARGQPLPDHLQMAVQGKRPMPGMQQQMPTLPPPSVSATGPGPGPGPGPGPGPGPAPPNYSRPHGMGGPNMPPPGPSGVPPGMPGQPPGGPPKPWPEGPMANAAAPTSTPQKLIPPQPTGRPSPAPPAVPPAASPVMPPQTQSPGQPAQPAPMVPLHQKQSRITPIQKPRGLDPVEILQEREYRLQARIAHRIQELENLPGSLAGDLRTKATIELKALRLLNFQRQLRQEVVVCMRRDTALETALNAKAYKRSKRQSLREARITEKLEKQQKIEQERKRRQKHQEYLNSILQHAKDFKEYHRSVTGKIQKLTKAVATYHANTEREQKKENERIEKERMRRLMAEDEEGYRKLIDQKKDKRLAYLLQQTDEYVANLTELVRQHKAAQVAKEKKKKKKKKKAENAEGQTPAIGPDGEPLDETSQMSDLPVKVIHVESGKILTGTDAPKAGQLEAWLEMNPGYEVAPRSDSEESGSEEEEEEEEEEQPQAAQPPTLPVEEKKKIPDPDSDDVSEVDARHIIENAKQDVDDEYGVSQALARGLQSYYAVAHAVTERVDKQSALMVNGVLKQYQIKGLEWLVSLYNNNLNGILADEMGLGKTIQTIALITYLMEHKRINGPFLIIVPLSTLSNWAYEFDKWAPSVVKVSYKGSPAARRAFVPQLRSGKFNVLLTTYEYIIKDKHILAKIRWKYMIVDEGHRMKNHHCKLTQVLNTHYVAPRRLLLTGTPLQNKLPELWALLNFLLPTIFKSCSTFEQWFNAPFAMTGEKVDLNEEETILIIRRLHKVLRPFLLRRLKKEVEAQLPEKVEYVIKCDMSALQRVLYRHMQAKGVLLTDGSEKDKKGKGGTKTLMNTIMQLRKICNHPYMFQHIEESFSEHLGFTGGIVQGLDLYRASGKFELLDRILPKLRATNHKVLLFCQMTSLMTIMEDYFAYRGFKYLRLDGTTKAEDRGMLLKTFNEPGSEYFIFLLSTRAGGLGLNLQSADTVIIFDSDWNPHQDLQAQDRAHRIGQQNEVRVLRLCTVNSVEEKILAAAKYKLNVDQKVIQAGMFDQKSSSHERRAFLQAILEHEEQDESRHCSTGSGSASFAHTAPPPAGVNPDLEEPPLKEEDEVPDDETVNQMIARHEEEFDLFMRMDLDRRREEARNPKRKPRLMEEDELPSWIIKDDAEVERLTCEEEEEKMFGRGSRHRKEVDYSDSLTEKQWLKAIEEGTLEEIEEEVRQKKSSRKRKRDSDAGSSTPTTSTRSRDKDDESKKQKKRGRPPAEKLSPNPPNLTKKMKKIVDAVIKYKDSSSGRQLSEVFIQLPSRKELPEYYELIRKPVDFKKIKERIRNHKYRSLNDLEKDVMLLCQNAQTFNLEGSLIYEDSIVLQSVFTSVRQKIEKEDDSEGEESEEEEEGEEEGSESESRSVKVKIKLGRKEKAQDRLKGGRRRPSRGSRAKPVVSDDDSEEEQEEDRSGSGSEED
Sequence of SMARCA5 (human (HeLa)) (O60264 2-1052): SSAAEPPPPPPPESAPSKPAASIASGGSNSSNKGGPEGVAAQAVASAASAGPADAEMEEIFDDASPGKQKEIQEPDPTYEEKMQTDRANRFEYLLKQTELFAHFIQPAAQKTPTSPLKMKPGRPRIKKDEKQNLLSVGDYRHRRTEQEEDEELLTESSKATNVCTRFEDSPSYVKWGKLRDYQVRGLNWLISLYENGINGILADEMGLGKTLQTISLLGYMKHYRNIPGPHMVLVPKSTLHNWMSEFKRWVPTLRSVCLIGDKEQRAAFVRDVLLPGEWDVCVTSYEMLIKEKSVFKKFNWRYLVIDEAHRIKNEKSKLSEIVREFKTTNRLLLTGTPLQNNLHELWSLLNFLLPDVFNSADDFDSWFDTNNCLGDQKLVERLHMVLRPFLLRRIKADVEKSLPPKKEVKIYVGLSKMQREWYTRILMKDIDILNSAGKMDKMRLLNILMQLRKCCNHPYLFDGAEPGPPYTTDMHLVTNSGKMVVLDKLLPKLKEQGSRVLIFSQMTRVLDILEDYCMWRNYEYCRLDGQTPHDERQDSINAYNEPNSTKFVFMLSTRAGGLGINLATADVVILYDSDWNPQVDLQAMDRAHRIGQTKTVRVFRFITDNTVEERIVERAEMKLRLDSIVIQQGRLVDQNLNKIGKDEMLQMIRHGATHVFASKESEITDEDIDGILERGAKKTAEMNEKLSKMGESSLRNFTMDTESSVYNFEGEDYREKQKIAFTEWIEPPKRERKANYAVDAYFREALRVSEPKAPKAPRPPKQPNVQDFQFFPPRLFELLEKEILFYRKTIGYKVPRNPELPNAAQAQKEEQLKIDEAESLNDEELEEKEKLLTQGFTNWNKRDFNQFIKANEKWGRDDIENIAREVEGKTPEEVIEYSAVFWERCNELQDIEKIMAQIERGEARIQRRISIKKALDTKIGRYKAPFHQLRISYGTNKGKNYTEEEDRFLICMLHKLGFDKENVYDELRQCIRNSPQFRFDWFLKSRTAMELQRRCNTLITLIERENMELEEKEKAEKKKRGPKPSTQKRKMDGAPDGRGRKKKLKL
Sequence of GST-KLF4-ZF (O43474 whole entry): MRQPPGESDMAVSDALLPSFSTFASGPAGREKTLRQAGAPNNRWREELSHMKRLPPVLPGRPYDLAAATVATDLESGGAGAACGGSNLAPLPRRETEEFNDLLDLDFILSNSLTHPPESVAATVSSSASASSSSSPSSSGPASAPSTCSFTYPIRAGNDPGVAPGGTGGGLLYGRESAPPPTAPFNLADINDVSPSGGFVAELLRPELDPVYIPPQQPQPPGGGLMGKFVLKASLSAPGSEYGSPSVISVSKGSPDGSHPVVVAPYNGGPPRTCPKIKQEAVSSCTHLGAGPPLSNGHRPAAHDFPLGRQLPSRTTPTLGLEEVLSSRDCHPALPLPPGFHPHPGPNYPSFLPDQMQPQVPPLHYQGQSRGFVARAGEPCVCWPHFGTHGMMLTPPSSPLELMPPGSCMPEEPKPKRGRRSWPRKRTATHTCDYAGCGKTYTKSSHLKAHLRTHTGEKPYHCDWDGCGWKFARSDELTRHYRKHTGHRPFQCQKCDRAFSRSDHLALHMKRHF
Sequence of PHF10 (Q8WUB8 whole entry): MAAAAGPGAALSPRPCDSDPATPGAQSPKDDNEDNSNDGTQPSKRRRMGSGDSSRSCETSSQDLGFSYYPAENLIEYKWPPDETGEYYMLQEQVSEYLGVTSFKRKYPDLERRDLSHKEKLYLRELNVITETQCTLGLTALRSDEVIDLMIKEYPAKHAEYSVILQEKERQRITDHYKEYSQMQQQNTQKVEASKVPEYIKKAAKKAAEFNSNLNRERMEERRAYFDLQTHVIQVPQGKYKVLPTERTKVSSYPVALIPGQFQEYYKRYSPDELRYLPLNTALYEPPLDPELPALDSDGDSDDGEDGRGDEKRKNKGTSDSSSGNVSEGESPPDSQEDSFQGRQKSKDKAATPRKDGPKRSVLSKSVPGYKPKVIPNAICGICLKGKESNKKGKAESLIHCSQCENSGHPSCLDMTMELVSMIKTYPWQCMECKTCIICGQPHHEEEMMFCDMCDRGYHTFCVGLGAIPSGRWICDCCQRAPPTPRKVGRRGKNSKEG

Substance: GAGAGCCCCGCCCCCTGGCT (double strand) [SP/KLF wild-type Cy5]
- Kd [1]: 20.2 nM
- Kd [2]: 21.8 nM

Substance: H3K4me3 di-nucleosome
- Kd ([3]; histone H3K4me3): 123 nM
- Kd ([4]; histone H3K4me3): 90.6 nM
- Kd ([5]; histone H3K4me3): 100 nM
- Kd [6]: 68.7 nM
- Kd ([7]; histone H3K4me3): 54 nM
- Kd ([8]; histone H3K4me3): 82.4 nM
- Kd ([9]; histone H3K4me3): 51.8 nM

Substance: H3K9AcK14Ac di-nucleosome
- Kd ([3]; histone H3K9ac K14ac): 68.7 nM
- Kd [10]: 35 nM
- Kd ([4]; histone H3K9ac K14ac): 15 nM
- Kd ([5]; histone H3K9ac K14ac): 114 nM
- Kd ([7]; histone H3K9ac K14ac): 27.9 nM
- Kd ([8]; histone H3K9ac K14ac): 52.6 nM
- Kd ([9]; histone H3K9ac K14ac): 35.9 nM

- Kd [11]: 35 nM
Substance: PHF10 (from UniProt Q8WUB8 1-498) (natural protein)

Substance: unmodified H3 di-nucleosome
- Kd [3]: 174 nM
- Kd [4]: 122 nM
- Kd [5]: 151 nM
- Kd [7]: 53.2 nM
- Kd [8]: 102 nM
- Kd [9]: 162 nM
